Assay results as given in patent US7550429B2, “Glycoproteins having lipid mobilising properties and therapeutic applications thereof” (Aston University, priority 1998, dated 2009).

Experiments:
[1] = system: murine epididymal adipocytes; experiment: Lipolytic assay: glycerol release from isolated adipocytes; type: cell-based, mouse; settings: for Lipid mobilizing activity, glycerol released: 5 μg human or 10 μg mouse LMF, incubated overnight at 4° C. with or without pAb 10 μg, mean±SEM, three determinations; for Specific activity: purified product after final stage HPLC Resource-iso; for Stimulation of glycerol release (lipolysis): different doses, freshly isolated murine epididymal adipocytes, FIG. 9
Experimental: Single cell suspensions of white adipocytes were prepared from finely minced epididymal fat pads of male BKW mice using collagenase digestion, substantially as described by S. A. Beck et al. (see above-mentioned reference 14). Samples to be assayed were incubated with 10^5-2×10^5 adipocytes (determined by means of a haemocytometer) for 2 h at 37° C. in 1 ml of Krebs-Ringer bicarbonate buffer, pH 7.2. The concentration of glycerol released was determined enzymatically by the method of Wieland as referred to above (see also GB2217330A). Control samples containing adipocytes alone were analyzed to determine the spontaneous glycerol release. Lipid mobilizing activity was expressed as μmol glycerol released/10^5 adipocytes/2 h.

[2] = system: murine adipocyte plasma membrane adenylate cyclase; experiment: Adenylate cyclase assay with adipocyte plasma membranes; type: biochemical, mouse; settings: GTP-dependent stimulation
Experimental: In a typical procedure white adipocytes were isolated from mouse epididymal fat pads as referred to above except that the cells were washed in 250 mM sucrose, 2 mM ethyleneglycol bis(β-aminoethylether)-N,N,N′,N′ (EGTA), 10 mM Tris-HCl (pH 7.4). Adipocytes were resuspended in 20 ml of the above buffer and homogenised by aspirating through a Swinny filter at least 10 times. The cell homogenate was then centrifuged at 300 g for 5 min, the fat cake removed from the surface and the remaining pellet and infranatant transferred to clean tubes. These were centrifuged at 30,000 g for 1 h at 4° C. and the membrane pellet formed was resuspended in the sucrose buffer (200 to 400 μl). Plasma membranes were separated from other organelle membranes on a self-forming gradient of Percoll™ colloidial silica particles. […]
An adenylate cyclase assay used was based on that developed by Salomon et al. (reference 16). […] Background binding was determined by running samples without [α-^32P] […]
Samples containing labelled nucleotides were diluted to 1 ml with water and loaded onto Dowex™ 50W8-400 ion-exchange columns primed with 10 ml of water. […] The radioactivity was determined using a Tri-carb™ 2000A scintillation analyser.

[3] = system: ex-breeder male NMRI mice; experiment: In vivo fat depletion, iv LMF in ex-breeder male NMRI mice; set-up: species or system mouse
Experimental: (§1) Non-esterified fatty acids (NEFA) were determined using a Wako-ASC-ACOD kit (Wako Chemical GmbH, Neuss, Germany). Triglycerides were determined using a Triglyceride kit (Sigma Chemical Co., Poole, United Kingdom) and 3-hydroxybutyrate by a quantitative enzymatic determination kit (Sigma). Glucose was measured using a glucose analyser (Beckman, Irvine, Calif.) and glycerol was determined enzymatically using the method of Wieland as described in “Methods of Enzymatic Analysis” (Ed. Bergmeyer, H. U.) Vol. 3, pp 1404-1409, published by Academic Press, London (1974) (reference 13).
FIG. 10 is a diagram showing change in body weight of ex-breeder male NMRI mice (30-40 g) produced by intravenous (iv) administration of LMF (8 μg) isolated from human urine as described in Example 2 (o) and of control mice administered PBS by iv injection (x).
In order to determine if the purified LMF isolated from human urine as in Example 2 was capable of fat depletion in vivo a sample of this LMF material ([…]) was injected into male ex breeder NMRI mice over a 72 h period. The LMF was injected at times 0, 17, 24, 41, 48, 62 and 72 hours and control mice were similarly injected with phosphate-buffered saline (PBS) at the same time points. The animals were killed at 89 h and the body composition and serum metabolite levels were determined. […] Changes in the body composition and serum metabolic levels are summarised in Table 5 and it will be seen that total body weight decreased by 3.6 g during the overall 89 h period of the experiment without change in food and water intake. […] Despite the fat mobilisation there were significant reductions in the serum concentrations of non-esterified fatty acids (NEFA), glycerol and glucose in mice receiving LMF.

[4] = system: ob/ob mice; experiment: In vivo effect of iv LMF in obese ob/ob mice; set-up: species or system mouse
Experimental: as §1
FIG. 11 is a diagram similar to FIG. 10 showing change in body weight of ob/ob mice produced by iv administration of LMF (35 μg) (o) isolated from human urine as described in Example 2 and of control mice (x) administered PBS by iv injection. LMF was injected at times 0, 16, 24, 40, 48, 64, 72, 90, 96, 113, 120, 137 and 144 h; PBS was injected at the same time points. The animals were killed 160 h after the first injection. Results are expressed as mean±SEM for 5 animals per group.
As shown in FIG. 11 and by the data in Table 6, intravenous administration to obese ob/ob mice of LMF (35 μg) isolated from human urine produced a similar result. There was a decrease in total body weight which became significant within 24 h of the first injection and remained below that of the control group over the 160 h of the experiment.

[5] = LMF 8 μg iv over 72 h, killed at 89 h
[6] = LMF 35 μg iv, 160 h after first injection

B1: Mouse LMF: 43 kDa glycoprotein lipid mobilising factor purified from murine adenocarcinoma MAC16 (Example 1) (protein, UniProt Q64726 18-307, looked up)
Zinc-alpha-2-glycoprotein: QETGSYYLTFLYTGLSRPSKGFPRFQATAFLNDQAFFHYNSNSGKAEPVGPWSQVEGMEDWEKESQLQRAREEIFLVTLKDIMDYYKDTTGSHTFQGMFGCEITNNRSSGAVWRYAYDGEDFIEFNKEIPAWIPLDPAAANTKLKWEAEKVYVQRAKAYLEEECPEMLKRYLNYSRSHLDRIDPPTVTITSRVIPGGNRIFKCLAYGFYPQRISLHWNKANKKLAFEPERGVFPNGNGTYLSWAEVEVSPQDIDPFFCLIDHRGFSQSLSVQWDRTRKVKDENNVVAQPQ
Lipid mobilizing activity, glycerol released [1]: 0.0977 ± 0.02 μmole glycerol/10^5 adipocytes/2 h | Specific activity [1]: 50 μmol/10^5 adipocytes/mg protein

B2: Zn-α2-glycoprotein (protein, listed as Homo sapiens)
chain: QENQDGRYSLTYIYTGLSKHVEDVPAFQALGSLNDLQFFRYNSKDRKSQPMGLWRQVEGMEDWKEDSQLQKAREDMETLKDIVEYYNDSNGSHVLQGRFGCEIENNRSSGAFWKYYYDGKDYIEFNKEIPAWVPFDPAAQITKQKWEAEPVYVQRAKAYLEEECPATLRKYLKYSKNILDRQDPPSVVVTSHQAPGEKKKLKCLAYDFYPGKIDVHWTRAGQVQEPELRGDVLHNGNGTYQSWVVVAVPPQDTAPYSCHVQHSSLAQPLVVPWEAS
notes: Zn-α2-glycoprotein purified about 670-fold from fresh human plasma by the method of Ohkubo et al
Stimulation of glycerol release (lipolysis) [1]: stimulated glycerol release with a comparable dose-response profile | GTP concentration at maximal stimulation of adenylate cyclase [2]: 0.1 µM

B3: Human LMF: 43 kDa glycoprotein lipid mobilising factor purified from urine of cachectic cancer patients (Example 2); Zn-α2-glycoprotein type (protein, UniProt P25311 21-298, looked up)
Zinc-alpha-2-glycoprotein: QENQDGRYSLTYIYTGLSKHVEDVPAFQALGSLNDLQFFRYNSKDRKSQPMGLWRQVEGMEDWKQDSQLQKAREDIFMETLKDIVEYYNDSNGSHVLQGRFGCEIENNRSSGAFWKYYYDGKDYIEFNKEIPAWVPFDPAAQITKQKWEAEPVYVQRAKAYLEEECPATLRKYLKYSKNILDRQDPPSVVVTSHQAPGEKKKLKCLAYDFYPGKIDVHWTRAGEVQEPELRGDVLHNGNGTYQSWVVVAVPPQDTAPYSCHVQHSSLAQPLVVPWEAS
Lipid mobilizing activity, glycerol released [1]: 0.0062 ± 0.0002 μmole glycerol/10^5 adipocytes/2 h | Stimulation of glycerol release (lipolysis) [1]: stimulated glycerol release with a comparable dose-response profile | Specific activity [1]: 164.3 μmol/10^5 adipocytes/mg protein | Effect of α-chymotrypsin digestion on in vitro biological activity ([1]; α-chymotrypsin digestion): chymotrypsin destroyed the in vitro biological activity | Food intake ([3]; LMF 8 μg iv over 72 h): 8.0 ± 0.2 g/day | Water intake ([3]; LMF 8 μg iv over 72 h): 4.4 ± 0.4 mL/day | Body composition: Fat [3, 5]: 3.4 ± 0.4 g | Body composition: Non Fat [3, 5]: 9.6 ± 0.9 g | Body composition: Water [3, 5]: 18.3 ± 0.8 g | Serum Glucose [3, 5]: 186 ± 0.08 mg/100 ml | Serum Glycerol [3, 5]: 6.73 ± 0.45 mM | Serum NEFA [3, 5]: 0.95 ± 0.03 mEq/l | Final body weight ([3]; LMF 8 μg iv, 7 injections over 72 h, killed at 89 h, mean±SEM, 5 mice): 31.6 ± 2.2 g | Time until body weight significantly lower than PBS treated controls ([3]; LMF iv, FIG. 10): ≤ 41 h | Reduction in body fat content ([3]; body composition analysis at 89 h): 42% | Decrease in total body weight ([3]; overall 89 h period, no change in food and water intake): 3.6 g | GTP concentration at maximal stimulation of adenylate cyclase [2]: 0.1 µM | Final body weight ([4]; LMF 35 μg iv, 13 injections over 144 h, 160 h after first injection, mean±SEM, 5 mice): 69.5 ± 4.3 g | Body composition: Fat [4, 6]: 30.6 ± 0.7% | Body composition: Non Fat [4, 6]: 17.4 ± 1.0% | Body composition: Water [4, 6]: 53.7 ± 1.1% | Glucose [4, 6]: 260 ± 12 mg/100 ml | Oxygen uptake [4, 6]: 0.55 ± 0.07 μl/mgBAT/h | Serum 3-Hydroxybutyrate [4, 6]: 0.44 ± 0.01 mM | Serum Glycerol [4, 6]: 5.31 ± 0.45 mM | Serum NEFA [4, 6]: 1.45 ± 0.45 mEq/l | Carcass fat ([4]; LMF 35 μg iv, body composition analysis at 160 h): 21.09 ± 0.99 g | Time until decrease in total body weight became significant ([4]; after the first injection, FIG. 11): ≤ 24 h | Initial body weight ([4]; baseline before first injection): 67.9 ± 2.9 g
